Experimental findings from article PMC9157457 (The Journal of Biological Chemistry, 2022) are described below.

This data set concerns the molecule itself. Description: cryo-EM structure.

B1: Photobacterium phosphoreum LuxC (acyl-CoA reductase) (enzyme)
chain: IKKIPMIIGGAERDTSEHEYRELTLNSYKVSIPIINQDDVEAIKSQSVENNLNINQIVNFLYTVGQKWKSENYSRRLTYIRDLVRFLGYSPEMAKLEANWISMILSSKSALYDIVETELGSRHIVDEWLPQGDCYVKAMPKGKSVHLLAGNVPLSGVTSIIRAILTKNECIIKTSSADPFTAIALASSFIDTDEHHPISRSMSVMYWSHNEDIAIPQQIMNCADVVVSWGGYDAIKWATEHTPVNVDILKFGPKKSIAIVDNPVDITASAIGVAHDICFYDQQACFSTQDIYYIGDNIDAFFDELVEQLNLYMDILPKGDQTFDEKASFSLIEKECQFAKYKVEKGDNQSWLLVKSPLGSFGNQPLARSAYIHHVSDISEITPYIENRITQTVTVTPWESSFKYRDVLASHGAERIVESGMNNIFRVGGAHDGMRPLQRLVKYISHERPYTYSTKDVAVKIEQTRYLEEDKFLVFVP
Turning to B1, the stoichiometry N (as a rule, the number of molecules, sites or subunits per partner or assembly) came out at 4.
